PMC5304201 (2017)

Biological target: Amyloid-beta 42 oligomers Abeta42 (Homo sapiens, UniProt P05067, biotinylated Abeta42 oligomers, HA-tagged NRX1beta)
Assay: cell surface binding assay, Scatchard

B1: Neurexin-1beta S4(-) (protein)
chain: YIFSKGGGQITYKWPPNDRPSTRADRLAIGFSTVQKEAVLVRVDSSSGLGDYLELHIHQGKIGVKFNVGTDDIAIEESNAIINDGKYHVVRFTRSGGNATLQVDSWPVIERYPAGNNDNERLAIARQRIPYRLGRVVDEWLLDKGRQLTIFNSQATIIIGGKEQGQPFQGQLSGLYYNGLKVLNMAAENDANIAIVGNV
- Kd: 184 nM
